From patent publication US20120289467A1 (UNIVERSITY OF MARYLAND BALTIMORE, published 2012) come the findings set out here.

A word on the Kd: it is the constant that tells how readily two partners part at equilibrium. Low readings indicate tighter binding, high ones weaker binding. As a reminder, the EC50 (read off the curve) is the concentration giving half of the maximal effect.

Assay [1] deals with T1, VE-cadherin fragment (UniProt P33151 48-477, limits assumed).
T1 construct: also called VE-caherin; immobilized VE-cadherin fragment
T1 sequence (looked up): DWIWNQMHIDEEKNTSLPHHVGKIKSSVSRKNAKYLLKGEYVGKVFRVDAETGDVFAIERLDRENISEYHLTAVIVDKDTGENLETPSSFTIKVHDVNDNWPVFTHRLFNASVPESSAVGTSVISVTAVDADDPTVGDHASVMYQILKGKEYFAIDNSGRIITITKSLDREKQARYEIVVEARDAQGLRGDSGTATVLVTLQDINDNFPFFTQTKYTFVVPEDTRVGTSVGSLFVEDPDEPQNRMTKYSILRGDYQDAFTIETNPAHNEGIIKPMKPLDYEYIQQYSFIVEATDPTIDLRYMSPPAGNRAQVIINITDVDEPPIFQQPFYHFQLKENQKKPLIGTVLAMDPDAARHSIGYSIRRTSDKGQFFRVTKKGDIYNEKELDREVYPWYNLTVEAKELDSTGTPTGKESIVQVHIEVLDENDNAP
The assay is described as follows: not stated on the sheet; the legend calls it the dissociation constant for the interaction with VE-cadherin.

The target of assay [2] is T1, VE-cadherin fragment. The assay is described as follows: SPR (BIAcore), ratio of Kd values, reference β15-42. Here is the method:
(§1) To test binding activities of fibrin beta chain derived peptides of the invention to VE-caherin, surface plasmon resonance (SPR) methods are, for example, used. SPR experiments are performed using, for example, a BIAcore 3000 biosensor (BIAcore AB, Uppsala, Sweden), which can be used to measure the association/dissociation of peptides or proteins in real-time (see, for example, Karlsson, R., and Falt, A. J. Immunol. Methods (1997) 200, 121-133; Hall, D. Anal. Biochem. (2001) 288, 109-125; see also Gorlatov et al. Biochemistry (2002) 41, 4107-4116 for other VE-cadherin binding assays including, for example, SPR IAsys Analysis based assays and ELISA based assays). An exemplary method is described in the following passage. VE-cadherin fragment is covalently coupled via epsilon-amino groups to the activated surface of a CM5 biosensor chip by the procedure described by, for example, Karlsson, R., and Falt, A. (J. Immunol. Methods (1997) 200, 121-133; see also Gorlatov et al. Biochemistry (2002) 41, 4107-4116). […] Samples comprising, for example, fibrin beta chain derived peptides β15-42, β15-64, and (β15-66)2, at different concentrations are injected in duplicate in at least three separate experiments and the association/dissociation between the immobilized and the added peptides is monitored as the change in the SPR response. […]
(In general: Surface plasmon resonance follows binding to a sensor surface in real time, without labels.)

Assay [3] concerns the target T1, VE-cadherin fragment. Nature of the assay: SPR (BIAcore), VE-cadherin fragment immobilized, peptide added up to 200 nM; dimeric peptide, added up to 200 nM. As to the method: as §1
Assay [4] has as its target T1, VE-cadherin fragment. The assay is described as follows: not stated on the sheet; the legend calls it the dissociation constant for the interaction with VE-cadherin. The source holds these as a separate data set.
The target of assay [5] is T2, VE-cadherin fragment, P33151.
T2 chain: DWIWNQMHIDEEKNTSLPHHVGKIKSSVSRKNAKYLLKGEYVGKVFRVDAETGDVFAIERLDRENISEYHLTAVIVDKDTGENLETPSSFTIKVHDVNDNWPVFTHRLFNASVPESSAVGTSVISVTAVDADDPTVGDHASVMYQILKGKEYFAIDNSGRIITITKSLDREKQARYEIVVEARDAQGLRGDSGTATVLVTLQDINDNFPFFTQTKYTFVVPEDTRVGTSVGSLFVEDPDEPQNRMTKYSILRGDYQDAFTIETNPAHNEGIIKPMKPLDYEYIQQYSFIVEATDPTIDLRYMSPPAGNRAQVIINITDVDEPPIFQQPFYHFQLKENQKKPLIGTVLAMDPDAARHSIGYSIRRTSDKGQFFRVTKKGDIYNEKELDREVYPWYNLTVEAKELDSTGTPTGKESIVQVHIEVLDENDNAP
The assay is described as follows: plate assay read as absorbance at 450 nm, VE-cad(1-5) concentration varied (0-0.5 µM); format not described in the text.

Assay [6] deals with T1, VE-cadherin fragment. Nature of the assay: SPR (BIAcore), VE-cadherin fragment immobilized; monomeric peptide. As to the method:
as §1

No end group written: not given here.

B1: (β15-44)2 dimer peptide (peptide)
peptide: GHRPLDKKREEAPSLRPAPPPISGGGYRCG
modifications: also: homodimer, Cys43-Cys43 disulfide
notes: Synthetic homodimer of two identical 30-residue chains, linked by a Cys43-Cys43 disulfide bond; also called dimeric (β15-44)2
B1 gave an equilibrium dissociation constant (Kd) with VE-cadherin fragment [1] of 21 nM.

B2: (β15-66)2 dimer peptide (peptide)
peptide: GHRPLDKKREEAPSLRPAPPPISGGGYRARPAKAAATQKKVERKAPDAGGCG
modifications: also: homodimer, Cys65-Cys65 disulfide
notes: Homodimer of two β15-66 chains, disulfide-linked via Cys65; Gly66 is not natural; also called dimeric (β15-66)2
As for B2, the “fold increase in affinity against β15-42” value in the assay with VE-cadherin fragment [2] was 3600 fold. Further, the results for the equilibrium dissociation constant (Kd) in the assay with VE-cadherin fragment [3] and with VE-cadherin fragment [4] were 70 nM and 27 nM, respectively.

As to GHRPLDKKREEAPSLRPAPPPISYCG (also: homodimer linked through added Cys25) [(β15-40)2 dimer peptide], the EC50 (read off the curve) in assay [5] came out at 40 nM. In the case of GHRPLDKKREEAPSLRPAPPPISGGGYR (also called monomeric β15-42) [β15-42 monomeric peptide], the Kd with VE-cadherin fragment [6] came out at 252000 nM.
